Results reported in patent US20100261872A1, “Factor VIII: remodeling and glycoconjugation of factor VIII” (Neose Technologies, Inc., published 2010).
Each block holds one molecule with its values, some of them ahead of it.

Legend:
[1] = molecular target: Recombinant human erythropoietin (rhEPO) from the baculovirus/Sf9 expression system (Protein Sciences) (human)
[2] = molecular target: Ribonuclease B (RNaseB) purified from bovine pancreas (Sigma) (bovine) (UniProt P61823)
[3] = molecular target: Cri-IgG1 monoclonal antibody (non-recombinant, isolated from a human myeloma) (human)
[4] = molecular target: Fc Cri-IgG1 (Cri-IgG1 treated with a protease so that only the Fc portion remained) (human)
[5] = molecular target: Recombinant human erythropoietin (rhEPO) from the baculovirus/Sf9 expression system (Protein Sciences) (human); remark: listed apart in the source
Target sequence in this assay (chain, as listed by the source): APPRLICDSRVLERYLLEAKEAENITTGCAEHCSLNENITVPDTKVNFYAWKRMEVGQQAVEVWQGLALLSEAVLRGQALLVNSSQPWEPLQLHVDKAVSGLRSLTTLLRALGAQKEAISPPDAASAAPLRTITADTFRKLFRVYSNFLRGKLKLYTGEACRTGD

[6] = molecular target: Recombinant human erythropoietin (rhEPO) from the baculovirus/Sf9 expression system (Protein Sciences) (human); remark: listed apart in the source
[7] = molecular target: Cri-IgG1 monoclonal antibody (non-recombinant, isolated from a human myeloma) (human); remark: listed apart in the source
[8] = molecular target: Fc Cri-IgG1 (Cri-IgG1 treated with a protease so that only the Fc portion remained) (human); remark: listed apart in the source
[9] = molecular target: Cri-IgG1 monoclonal antibody (non-recombinant, isolated from a human myeloma) (human); remark: listed apart in the source
[10] = molecular target: Fc Cri-IgG1 (Cri-IgG1 treated with a protease so that only the Fc portion remained) (human); remark: listed apart in the source
[11] = molecular target: Recombinant human erythropoietin (rhEPO) from the baculovirus/Sf9 expression system (Protein Sciences) (human); remark: listed apart in the source
Target sequence in this assay (chain, as listed by the source): as above

[12] = molecular target: Ribonuclease B (RNaseB) purified from bovine pancreas (Sigma) (bovine) (UniProt P61823); remark: listed apart in the source
[13] = molecular target: Cri-IgG1 monoclonal antibody (non-recombinant, isolated from a human myeloma) (human); remark: listed apart in the source
[14] = molecular target: Fc Cri-IgG1 (Cri-IgG1 treated with a protease so that only the Fc portion remained) (human); remark: listed apart in the source
[15] = molecular target: asialo-α1 Antitrypsin (PPL) (human)
[16] = molecular target: ATIII (Antithrombin III) from Genzyme Transgenics (human)
[17] = molecular target: Asialo-fetuin (Sigma)
[18] = molecular target: Recombinant human erythropoietin (rhEPO) from the baculovirus/Sf9 expression system (Protein Sciences) (human); remark: listed apart in the source
Target sequence in this assay (chain, as listed by the source): as above

Ribonuclease B (RNaseB) purified from bovine pancreas (Sigma) (bovine), sequence (P61823 27-150): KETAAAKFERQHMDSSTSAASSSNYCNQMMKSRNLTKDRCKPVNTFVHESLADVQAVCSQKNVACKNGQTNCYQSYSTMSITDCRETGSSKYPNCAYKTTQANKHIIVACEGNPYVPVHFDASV
asialo-α1 Antitrypsin (PPL) (human), sequence (chain, as listed by the source limits assumed): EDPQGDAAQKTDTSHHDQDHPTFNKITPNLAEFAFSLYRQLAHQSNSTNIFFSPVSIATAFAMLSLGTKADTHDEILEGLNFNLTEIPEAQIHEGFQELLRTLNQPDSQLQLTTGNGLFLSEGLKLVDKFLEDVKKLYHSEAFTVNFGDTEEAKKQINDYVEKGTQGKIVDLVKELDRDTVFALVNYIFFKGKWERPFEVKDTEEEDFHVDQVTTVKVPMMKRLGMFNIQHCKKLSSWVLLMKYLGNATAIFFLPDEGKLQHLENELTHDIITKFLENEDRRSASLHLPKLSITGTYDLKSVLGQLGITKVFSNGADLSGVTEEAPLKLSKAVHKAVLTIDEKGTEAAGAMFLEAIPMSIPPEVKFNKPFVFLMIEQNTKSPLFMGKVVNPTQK

relative amount of the M3N2F glycoform by CE [7]: 91.4%
relative amount of the M3N2F glycoform by CE [8]: 100%
Molecule: β-N-acetylhexosaminidase (from Jack Bean, Seikagaku) (enzyme)

% peak area of the bisecting (NGA2F) glycoform by CE [9]: 63.6%
% peak area of the bisecting (NGA2F) glycoform by CE [10]: 58.4%
B1: GnT-III (β1,4-mannosyl-UDP-N-acetylglucosaminosyltransferase III) (enzyme)
chain: HFFKTLSYVTFPRELASLSPNLISSFFWNNAPVTPQASPEPGDPDLLRTPLYSHSPLLQPLSPSKATEELHRVDFVLPEDTTEYFVRTKAGGVCFKPGTRMLEKPSPGRTEEKTEVSEGSSARGPARRPMRHVLSSRERLGSRGTRRKWVECVCLPGWHGPSCGVPTVVQYSNLPTKERLVPREVPRRVINAININHEFDLLDVRFHELGDVVDAFVVCDSNFTAYGEPRPLKFREMLTNGTFEYIRHKVLYVFLDHFPPGGRQDGWIADDYLRTFLTQDGVSRLRNLRPDDVFIIDDADEIPARDGVLFLKLYDGWTEPFAFHMRKSLYGFFWKQPGTLEVVSGCTMDMLQAVYGLDGIRLRRRQYYTMPNFRQYENRTGHILVQWSLGSPLHFAGWHCSWCFTPEGIYFKLVSAQNGDFPRWGDYEDKRDLNYIRSLIRTGGWFDGTQQEYPPADPSEHMYAPKYLLKNYDQFRYLLENPYREPKSTVEGGRQNQGSDGRSSAVRGKLDTAEG

% peak area of the bisecting (NGA2F) glycoform by CE [9]: 63.6%
% peak area of the bisecting (NGA2F) glycoform by CE [10]: 58.4%
completion of the bi-antennary GlcNAc glycan (HPLC, MALDI) [11]: > 99%
B2: GnT-II (β1,2-mannosyl-UDP-N-acetylglucosaminosyltransferase II) (enzyme)
chain: RQRKNEALAPPLLDAEPARGAGGRGGDHPSVAVGIRRVSNVSAASLVPAVPQPEADNLTLRYRSLVYQLNFDQTLRNVDKAGTWAPRELVLVVQVHNRPEYLRLLLDSLRKAQGIDNVLVIFSHDFWSTEINQLIAGVNFCPVLQVFFPFSIQLYPNEFPGSDPRDCPRDLPKNAALKLGCINAEYPDSFGHYREAKFSQTKHHWWWKLHFVWERVKILRDYAGLILFLEEDHYLAPDFYHVFKKMWKLKQQECPECDVLSLGTYSASRSFYGMADKVDVKTWKSTEHNMGLALTRNAYQKLIECTDTFCTYDDYNWDWTLQYLTVSCLPKFWKVLVPQIPRIFHAGDCGMHHKKTCRPSTQSAQIESLLNNNKQYMFPETLTISEKFTVVAISPPRKNGGWGDIRDHELCKSYRRLQ

conversion of the tri-mannosyl glycoform to 'tri-mannosyl core+2 GlcNAc' (2-AA HPLC) [18]: 100%
B4: GnT-I (β1,2-mannosyl-UDP-N-acetylglucosaminosyltransferase I) (enzyme)
chain: TRPAPGRPPSVSALDGDPASLTREVIRLAQDAEVELERQRGLLQQIGDALSSQRGRVPTAAPPAQPRVPVTPAPAVIPILVIACDRSTVRRCLDKLLHYRPSAELFPIIVSQDCGHEETAQAIASYGSAVTHIRQPDLSSIAVPPDHRKFQGYYKIARHYRWALGQVFRQFRFPAAVVVEDDLEVAPDFFEYFRATYPLLKADPSLWCVSAWNDNGKEQMVDASRPELLYRTDFFPGLGWLLLAELWAELEPKWPKAFWDDWMRRPEQRQGRACIRPEISRTMTFGRKGVSHGQFFDQHLKFIKLNQQFVHFTQLDLSYLQREAYDRDFLARVYGAPQLQVEKVRTNDRKELGEVRVQYTGRDSFKAFAKALGVMDDLKSGVPRAGYRGIVTFQFRGRRVHLAPPLTWEGYDPSWN

Further lines, the molecule ahead of its results:

Molecule: GnT-V (enzyme)
conversion to the tri-antennary glycan (2AA HPLC) [1]: 92%

Molecule: GalT1 (β1,4 galactosyltransferase 1) (from UniProt P08037) (enzyme)
addition of Gal; MALDI-TOF [2]: 98%
relative amount of the G2 glycoform by CE [3]: 90%
relative amount of the G2 glycoform by CE [4]: 84%
released glycans with terminal galactose (HPLC, MALDI) [5]: 97%

Molecule: ST6Gal1 (α2,6-sialyltransferase) (enzyme)
incorporation of radiolabelled sialic acid (% of the radiolabel) [6]: 5.7

B3: ST3Gal III (α2,3-sialyltransferase, EC 2.4.99.6) (enzyme)
chain: KLHLLQWEDSNSLILSLDSAGQTLGTEYDRLGFLLKLDSKLPAELATKYANFSEGACKPGYASAMMTAIFPRFSKPAPMFLDDSFRKWARIREFVPPFGIKGQDNLIKAILSVTKEYRLTPALDSLHCRRCIIVGNGGVLANKSLGSRIDDYDIVIRLNSAPVKGFEKDVGSKTTLRITYPEGAMQRPEQYERDSLFVLAGFKWQDFKWLKYIVYKERVSASDGFWKSVATRVPKEPPEIRILNPYFIQEAAFTLIGLPFNNGLMGRGNIPTLGSVAVTMALDGCDEVAVAGFGYDMNTPNAPLHYYETVRMAAIKESWTHNIQREKEFLRKLVKARVITDLSSGI
addition of sialic acid; MALDI-TOF [12]: 90%
incorporation of radiolabelled sialic acid [6]: 10.9 moles/mole
relative amount of the S2G2 glycoform by HPLC (peak at 49.4 min) [13]: 58.9%
relative amount of the S2G2 glycoform by HPLC (peak at 49.4 min) [14]: 61.9%
% Rxn (completion of sialylation by 14C-NeuAc incorporated, against terminal Gal content) [15]: 100%
% Rxn (completion of sialylation by 14C-NeuAc incorporated, against terminal Gal content) [16]: 117%
% Rxn (completion of sialylation by 14C-NeuAc incorporated, against terminal Gal content) [17]: 116%
